Three molecules from patent US20260042834A1 (HBM ALPHA THERAPEUTICS, published 2026) can be followed below.

Like-named read-outs stand apart in the source and are kept apart here.

As usually defined, the EC50 is the concentration at which the effect is half-maximal. By EC50 (read off the curve) is commonly meant the concentration that produces a half-maximal response. Low values mean an effect from little substance, high ones a need for much substance. A word on the Kd: it is the free concentration of one partner at which half of the binding sites on the other are occupied at equilibrium, for simple one-to-one binding. Read a low Kd as higher affinity. The term koff denotes the first-order rate constant of dissociation. Read a high koff as fast dissociation. A word on the kon: it is a measure of how fast the partners come together.

Assay [1] deals with T1, CRH (CT-Biotin) (human and mouse, biotin on the added C-terminal K (-K-Biotin)).
T1 construct: also called Peptide 4 (CRH-Biotin); C-terminally biotinylated corticotropin-releasing hormone
T1 peptide: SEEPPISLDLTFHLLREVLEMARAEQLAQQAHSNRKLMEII
The experiment in a line: ELISA, C-terminally biotinylated CRH on streptavidin-coated plate. The method, then:
(§1) Streptavidin (Thermo, Cat: 21125) was diluted in PBS to a concentration of 2 μg/ml. 100 μl of diluted streptavidin was added per well to ELISA microplates, and the plates were incubated overnight at 4° C. […] 100 μL of 3,3′,5,5′-tetramethylbenzidine (TMB) substrate (Biopanda, Cat: TMB-S-003) was added, and the plates were incubated at room temperature for 15 minutes. 100 μL of ELISA stopping solution (Solarbio, Cat #: C1058) was added to terminate the reaction, and the optical density at 450 nm (OD450 nm) was determined by an ELISA plate reader (Molecular Devices, Spectra max 384 plus).

Assay [2] deals with T1, CRH (CT-Biotin). The experiment in a line: ELISA on streptavidin-captured CRH (CT biotin), OD450. On the procedure: as §1
(In an ELISA, binding on a coated surface is turned into a signal by an enzyme label.)

The target of assay [3] is T2, CRH (NT-Biotin) (human and mouse, not fully specified; biotin at the N-terminus).
T2 construct: also called Biotin-CRH; N-terminally biotinylated corticotropin-releasing hormone
T2 peptide: T1 peptide
The experiment in a line: ELISA, N-terminally biotinylated CRH on streptavidin-coated plate. The method, then:
as §1

Assay [4] has as its target T2, CRH (NT-Biotin). The experiment in a line: ELISA on streptavidin-captured CRH (NT biotin), OD450. The method, then: as §1
Assay [5] has as its target T3, corticotropin-releasing hormone (CRH) peptide (human and mouse, not fully specified).
T3 peptide: T1 peptide
The experiment in a line: cell-based or functional assay.

The target in assay [6] is T1, CRH (CT-Biotin). The experiment in a line: ELISA on streptavidin-captured CRH (CT biotin), OD450. On the procedure: as §1
In assay [7] the target is T2, CRH (NT-Biotin). The experiment in a line: ELISA on streptavidin-captured CRH (NT biotin), OD450. On the procedure:
as §1

A further assay concerns the target T4, N-Terminal CRH (human and mouse, C-terminal K-Biotin).
T4 construct: also called N-Ter-CRH (CT-Bion)
T4 peptide: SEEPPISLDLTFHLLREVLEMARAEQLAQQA
The experiment in a line: ELISA, biotin peptide on streptavidin plate. The method in brief:
(§2)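 First, streptavidin (2 μg/ml in PBS) is coated onto wells overnight at 4° C. Then, following peptide capture and binding, TMB is added for 15 minutes at room temperature. Finally, the reaction is stopped and OD450 nm is measured.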

Assay [8] has as its target T5, CRH (CT Biotin) (human and mouse, C-terminal K-Biotin).
T5 construct: also called Peptide 4 (CRH-Biotin)
T5 peptide: T1 peptide
Description: ELISA, biotin peptide on streptavidin plate. The method in brief: as §2

Assay [9] deals with T6, CRH (NT Biotin) (human and mouse, not fully specified; biotin at the N-terminus).
T6 peptide: T1 peptide
The experiment in a line: ELISA, biotin peptide on streptavidin plate. The method in brief: as §2

For assay [10], the target named is T7, hUCN1 (NT Biotin) (human, UniProt P55089 83-122, biotin at the N-terminus).
T7 construct: also called human UCN1 (NT biotin)
T7 peptide (looked up): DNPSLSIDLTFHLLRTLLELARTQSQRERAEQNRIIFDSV
Description: ELISA on streptavidin-captured hUCN1 (NT biotin), mAb at 100 nM and 10 nM; axis labelled RLU, scale 0-4. On the procedure:
(§3) Streptavidin (Thermo, Cat: 21125) was diluted in PBS with a concentration of 2 μg/mL. 100 μL of diluted streptavidin was added per well to ELISA microplates, and the plates were incubated overnight at 4° C. Plates were blocked with ELISA blocking solution (containing 2% w/v BSA, 0.05% (v/v) Tween-20, pH 7.4 PBS buffer) at 37° C. for 1 hour, and then incubated with either 1 μg/mL hUCN1 (NT Biotin), hUCN1 (CT Biotin), hUCN2 (NT Biotin), hUCN2 (CT Biotin), hUCN3 (NT Biotin), or hUCN3 (CT Biotin) for 1 hour at 37° C. […] 100 μl of TMB Substrate (Biopanda, Cat: TMB-S-003) was added, and the plates were incubated at room temperature for 15 minutes. 100 μL of ELISA stopping solution (Solarbio, Cat #: C1058) was then added to terminate the reaction, and the OD450 nm was determined by an ELISA plate reader (Molecular Devices, Spectra max 384 plus).

The target in assay [11] is T8, human UCN2 peptide (human, UniProt Q96RP3 72-109, limits assumed, not fully specified; biotin at N- or C-terminus in the ELISA).
T8 construct: also called hUCN2; hUCN2 (NT Biotin)
T8 peptide (looked up): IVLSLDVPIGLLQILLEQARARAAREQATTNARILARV
The experiment in a line: ELISA on streptavidin-captured hUCN2 (NT biotin) and hUCN2 (CT biotin), mAb at 100 nM and 10 nM; axis labelled RLU, scale 0-4. The procedure, abridged: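 Streptavidin-coated plates (2 μg/mL, overnight 4° C.), blocked with 2% BSA/0.05% Tween-20 PBS pH 7.4, then loaded with 1 μg/mL N- or C-terminally biotinylated hUCN peptide, 1 hour at 37° C. Detection by TMB substrate, 15 minutes at room temperature, stopped, OD450 nm read.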

Assay [12] concerns the target T9, human UCN3 peptide (human, UniProt Q969E3 120-157, not fully specified; biotin at N- or C-terminus in the ELISA).
T9 construct: also called hUCN3; hUCN3 (NT Biotin)
T9 peptide (looked up): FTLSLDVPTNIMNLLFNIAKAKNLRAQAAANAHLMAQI
The experiment in a line: ELISA on streptavidin-captured hUCN3 (NT biotin) and hUCN3 (CT biotin), mAb at 100 nM and 10 nM; axis labelled RLU, scale 0-4. The method, then:
as §3

For assay [13], the target named is T10, corticotropin-releasing hormone (CRH) peptide (human and mouse, not fully specified).
T10 peptide: T1 peptide
Description: cell-based or functional assay.

In a further assay the target is T11, biotinylated CRH (human and mouse, not fully specified; biotinylated, position not stated).
T11 construct: also called Biotin-CRH; biotin-labeled CRH
T11 peptide: T1 peptide
The experiment in a line: Octet BLI, biotinylated CRH on SA sensor. (In BLI a coated tip is dipped into the sample, and binding shifts an interference pattern.)

The next assay concerns the target T12, hUCN1 (CT Biotin) (human, UniProt P55089 83-122, biotin at the C-terminus).
T12 construct: also called human UCN1 (CT biotin)
T12 peptide (looked up): T7 peptide (looked up)
Description: ELISA on streptavidin-captured hUCN1 (CT biotin), mAb at 100 nM and 10 nM; axis labelled RLU, scale 0-4. On the procedure: as §3, with “100 μL of ELISA stopping solution (Solarbio, Cat #: C1058) was then added to terminate the reaction, and the OD450 nm was determined by an ELISA plate reader (Molecular Devices, Spectra max 384 plus).” left out

Assay [14] has as its target T7, hUCN1 (NT Biotin). The experiment in a line: ELISA on streptavidin-captured hUCN1 (NT biotin), OD450. The method, then:
as §1

In assay [15] the target is T5, CRH (CT Biotin). The experiment in a line: ELISA on streptavidin-captured CRH (CT biotin), OD450. On the procedure:
as §1

Assay [16] deals with T6, CRH (NT Biotin). Description: ELISA on streptavidin-captured CRH (NT biotin), OD450. The method, then:
as §1

For assay [17], the target named is T9, human UCN3 peptide. The experiment in a line: ELISA on streptavidin-captured hUCN3 (NT biotin) and hUCN3 (CT biotin), mAb at 100 nM and 10 nM, OD450. On the procedure: as §3
Assay [18] has as its target T8, human UCN2 peptide. The experiment in a line: ELISA on streptavidin-captured hUCN2 (NT biotin) and hUCN2 (CT biotin), mAb at 100 nM and 10 nM, OD450. On the procedure: as §3

B1: PR004290 (antibody, human IgG1, kappa, V domains shown)
VH: EVQLVESGGVLVQPGGSLRLSCAASGFTFSSYWMTWVRQAPGKGLEWVANIKQDGSEKYYVDSVKGRFTISRDNAKNSLFLQMNSLRAEDTAVYYCARTLIFDYWGQGTLVTVSS
VL: DIVMTQSPLSLPVTPGEPASISCRSSQSLLHSTGYNSLEWYLQKPGQSPQLLIYLGSNRASGVPDRFSGSGSGTDFTLKISRVEAEDVGIYYCMQTLQTPITFGQGTRLEIKR
notes: Expressed recombinantly with human IgG1 wildtype Fc; also called Hybridoma Clone 28b3; Series 1 mAb
B1: the EC50 is 0.032 nM in the assay with CRH (CT-Biotin) [1] and 0.029 nM with CRH (NT-Biotin) [3]. The “EC50 (read off the curve)” value with CRH (CT-Biotin) [2] is approximately 0.03 nM; with CRH (NT-Biotin) [4], approximately 0.01 nM; in the assay with CRH (CT-Biotin) [6], approximately 0.01 nM; in the assay with CRH (NT-Biotin) [7] it was approximately 0.05 nM. Moreover, the “hCRHR1 Reporter IC50” value in [5] worked out at 3.69 nM.

B2: PR302334-26 (antibody, human IgG1, kappa, V domains shown)
VH: EVQLVESGGGLVQPGGSLRLSCAASGFTFSTYAMSWVRQAPGKGLEWVASIRSGGTTYYPDSVKGRFTISRDNSKNSLYLQMNSLRAEDTAVYYCTRGIDWGQGTTVTVSS
VL: DIVMTQSPDSLAVSLGERATINCKASQSVNNDVAWYQQKPGQPPRLLIYYASNRYTGVPDRFSGSGSGTDFTLTISSLQAEDLAVYFCQQDYSSWTFGGGTKVEIKR
notes: Humanized variant of PR302334
For the molecule B2, the EC50 was 0.029 nM with N-Terminal CRH, 0.028 nM with CRH (CT Biotin) [8] and 0.029 nM in the assay with CRH (NT Biotin) [9]. For the same molecule, the binding result with hUCN1 (NT Biotin) [10], with human UCN2 peptide [11], in the assay with human UCN3 peptide [12] and with hUCN1 (CT Biotin) was “no binding (tested: 100 nM)” throughout. Besides, the “CHO-CRE-hCRHR1 0.5 nM CRH IC50” value in [13] came to 1.1 nM. The molecule further gave a Kd in the assay with biotinylated CRH of less than 0.001 nM. The koff in the assay with biotinylated CRH is less than 1e-07 s⁻¹. For the same molecule, the kon with biotinylated CRH was 329000 M⁻¹ s⁻¹.

B3: PR302309-18 (antibody, human IgG1, kappa, V domains shown)
VH: QVQLVQSGAEVKKPGASVKVSCKASGYTFTNYGMNWVRQAPGQRLEWMGWINTYTGEPIYTDDFKGRVTITRDTSASTAYMELSSLRSEDTAVYYCARSTMITTGGVFAYWGQGTLVTVSS
VL: DVVMTQSPLSLPVTLGQPASISCRSSQTIVHSDGNTYLEWYQQRPGQSPRLLIYKVSNRFSGVPDRFSGSGSGTDFTLKISRVEAEDLGVYYCFQGSHVPWTFGGGTKVEIKR
notes: Humanized variant of PR302309
Turning to B3, the “EC50 (read off the curve)” value with hUCN1 (NT Biotin) [14] is approximately 0.1 nM; with CRH (CT Biotin) [15] it was approximately 0.03 nM; in the assay with CRH (NT Biotin) [16], approximately 0.03 nM. In the assay with N-Terminal CRH, a half-maximal response (EC50) required 0.028 nM. The binding result with human UCN3 peptide [17] and with human UCN2 peptide [18] was “no binding (tested: 100 nM)” throughout. The same molecule showed a Kd in the assay with biotinylated CRH of less than 0.001 nM. In the assay with biotinylated CRH, this molecule showed a koff of less than 1e-07 s⁻¹. In the assay with biotinylated CRH, this molecule showed a kon of 126000 M⁻¹ s⁻¹.
